Experimental data as given in patent US20220033483A1 (GUAGNDONG FEIPENG BIOLOGICAL, published 2022).
Substitutions are numbered along the chain they refer to. Read-outs that look alike come from different tables or passages of the source. Blank lines part the entries; values can stand above or below the binder they belong to.

Legend:
[1] = target: T1, cTnI quality control product recombinant protein (human, UniProt P19429 1-210, limits assumed); assay: AMC biosensor, antibody on sensor
T1 construct: the assay paragraphs only say cTnI; also called cardiac troponin I; cTnI antigen
Protocol: (§1) Operating process: it is equilibrated in Buffer 1 (PBST) for 60 s, the antibody is immobilized in an antibody solution for 300 s, incubated in Buffer 2 (PBST) for 180 s, bound in antigen solution for 420 s, dissociated in the Buffer 2 for 1200 s, 10 mM of GLY solution with pH 1.69 and Buffer 3 are used for sensor regeneration, and data is output.

[2] = target: T1, cTnI quality control product …; assay: AMC biosensor, antibody on sensor; remark: listed apart in the source
Protocol: as §1

[3] = target: T1, cTnI quality control product …; assay: capture ELISA, antibody 4.115 ng/ml, cTnI 0.15 ug/ml
Protocol: (§2) After mutation, the antibody activity is detected, 1 μg/ml of goat anti-mouse IgG is diluted with coating solution to coat a microwell plate, 100 μL per well, and overnight at 4 DEG C.; on the next day, it is washed twice with washing solution, and patted dry; blocking solution (20% BSA+80% PBS) is added, 120 μL per well, 37 DEG C., and 1 h, and patted dry; a diluted cTnI monoclonal antibody is added, 100 μL/well, 37 DEG C., and 60 min; liquid in the plate is shaken off, patted dry, and […] of mouse negative blood is added for blocking, 120 μl per well, 37 DEG C., 1 h; liquid in the plate is shaken off, patted dry, a diluted cTnI antigen (0.15 μg/ml) is added, 100 μL per well, 37 DEG C., and 40 min; it is washed for 5 times with the washing solution, and patted dry; another strain of the cTnI monoclonal antibody (1:5K) labeled with HRP is added, 100 μL per well, 37 DEG C., and 30 min; color developing solution A (50 μL/well) is added, color developing solution B (50 μL/well) is added, 10 min; stop solution is added, 50 μL/well; and a OD value is read at 450 nm (refer to 630 nm) on a microplate reader.

[4] = target: T1, cTnI quality control product …; assay: capture ELISA, antibody 37.037 ng/ml, cTnI 0.15 ug/ml
Protocol: as §2

[5] = target: T1, cTnI quality control product …; assay: capture ELISA, antibody 1.372 ng/ml, cTnI 0.15 ug/ml
Protocol: as §2

[6] = target: T1, cTnI quality control product …; assay: capture ELISA, antibody 12.346 ng/ml, cTnI 0.15 ug/ml
Protocol: as §2

[7] = target: T1, cTnI quality control product …; assay: capture ELISA, antibody 333.333 ng/ml, cTnI 0.15 ug/ml
Protocol: as §2

[8] = target: T1, cTnI quality control product …; assay: capture ELISA, antibody 111.111 ng/ml, cTnI 0.15 ug/ml
Protocol: as §2

[9] = target: T1, cTnI quality control product …; assay: capture ELISA, antibody 1000.000 ng/ml, cTnI 0.15 ug/ml
Protocol: as §2

[10] = target: T1, cTnI quality control product …; assay: capture ELISA, antibody 0.000 ng/ml (blank), cTnI 0.15 ug/ml
Protocol: as §2

T1 sequence (P19429 whole entry): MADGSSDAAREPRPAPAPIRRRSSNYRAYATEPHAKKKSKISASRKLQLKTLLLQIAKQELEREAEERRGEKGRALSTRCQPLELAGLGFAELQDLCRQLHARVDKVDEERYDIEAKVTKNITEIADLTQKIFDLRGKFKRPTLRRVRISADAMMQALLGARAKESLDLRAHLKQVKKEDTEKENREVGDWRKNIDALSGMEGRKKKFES

Kd [1]: 12.9 nM
koff [1]: 0.000368 s⁻¹
kon [1]: 28600 M⁻¹ s⁻¹
Kd [2]: 12.9 nM
koff [2]: 0.000368 s⁻¹
kon [2]: 28600 M⁻¹ s⁻¹
OD 450 nm [3]: 0.475 OD
OD 450 nm [4]: 1.7 OD
OD 450 nm [5]: 0.174 OD
OD 450 nm [6]: 0.947 OD
OD 450 nm [7]: 2.01 OD
OD 450 nm [8]: 1.88 OD
OD 450 nm [9]: 2.1 OD
OD 450 nm [10]: 0.144 OD
B1: Anti-cTnI 7B9 monoclonal antibody (recombinant, Sample 1) (antibody, mouse IgG1, kappa, V domains shown)
VH: QVQLQQSGTELAKPGASVKFSCKASDYTFSTYWMYWIKQRPGQGLEWIGYLNPSSGHTEYNQRFKDKATLTADKSSSTAYMQLNSLTSEDSAVYYCARKYFGPFAMDYWGQGTSVTVSS
VL: EIFLTQSPAIMSASPGEKVTMTCSASTTVSYAHWYQQKSGTSPKRWLYDSSKIASGIPVRFSGSGSGTSYSLTISSMEAEDAATYYCQNWSTQPYTFGGGTKLEIKR
notes: Recombinant mouse antibody expressed in CHO cells; also called WT; Anti-cTnI 7B9 antibody

Kd [1]: 6.07 nM
koff [1]: 8.86e-05 s⁻¹
kon [1]: 14600 M⁻¹ s⁻¹
B2: Mutation 1-56 (antibody, V domains shown)
VH: B1 VH with D26G, S30T, E59D, K99R, F101W, A105G
VL: B1 VL with T28S, A32V, L47I, S50T, N89Q, T92S, Q93N

Kd [1]: 7.96 nM
koff [1]: 0.000302 s⁻¹
kon [1]: 37900 M⁻¹ s⁻¹
B3: Mutation 1-2 (antibody, V domains shown)
VH: B1 VH with D26G, S30T, T31S, L51I, E59D, K99R, F101W, A105G
VL: B1 VL with T27S, A32V, S50T, I53L, N89Q, T92S

Kd [1]: 2.92 nM
koff [1]: 4.05e-05 s⁻¹
kon [1]: 13900 M⁻¹ s⁻¹
B4: Mutation 1-7 (antibody, V domains shown)
VH: B1 VH with D26G, S30T, S55T, E59D, R63K, K99R, F101Y, A105G
VL: B1 VL with T28S, A32V, S50T, I53L, N89Q, Q93N

Kd [1]: 0.238 nM
koff [1]: 1.17e-05 s⁻¹
kon [1]: 49300 M⁻¹ s⁻¹
B5: Mutation 1-5 (antibody, V domains shown)
VH: B1 VH with D26G, T31S, S55T, E59D, R63K, F101W, A105G
VL: B1 VL with T27S, T28S, A32V, L47I, S50T, N89Q, Q93N

Kd [1]: 2.32 nM
koff [1]: 6.03e-05 s⁻¹
kon [1]: 26000 M⁻¹ s⁻¹
B6: Mutation 1-6 (antibody, V domains shown)
VH: B1 VH with D26G, S30T, T31S, E59D, K99R, A105G
VL: B1 VL with T27S, A32V, S50T, I53L, N89Q, Q93N

Kd [1]: 9.45 nM
koff [1]: 0.000181 s⁻¹
kon [1]: 19200 M⁻¹ s⁻¹
B7: Mutation 1-3 (antibody, V domains shown)
VH: B1 VH with D26G, S30T, L51I, S55T, E59D, R63K, A105G
VL: B1 VL with T28S, A32V, L47I, S50T, I53L, N89Q, T92S, Q93N

Kd [1]: 0.221 nM
koff [1]: 4.49e-06 s⁻¹
kon [1]: 20300 M⁻¹ s⁻¹
B8: Mutation 1-11 (antibody, V domains shown)
VH: B1 VH with D26G, S30T, T31S, L51I, E59D, R63K, F101W, A105G
VL: B1 VL with T28S, A32V, L47I, S50T, I53L, N89Q

Kd [2]: 56700 nM
koff [2]: 0.0371 s⁻¹
kon [2]: 654 M⁻¹ s⁻¹
OD 450 nm [7]: 0.678 OD
OD 450 nm [8]: 0.374 OD
OD 450 nm [9]: 1.28 OD
B9: Mutation 4 (antibody, V domains shown)
VH: B1 VH with D26N, E59K, A105N
VL: B1 VL with A32E, S50Q, N89V
notes: other CDR sites as WT

Kd [2]: 978000 nM
koff [2]: 0.687 s⁻¹
kon [2]: 702 M⁻¹ s⁻¹
OD 450 nm [7]: 0.514 OD
OD 450 nm [8]: 0.247 OD
OD 450 nm [9]: 1.12 OD
B10: Mutation 5 (antibody, V domains shown)
VH: B1 VH with D26W, E59V, A105S
VL: B1 VL with A32S, S50Y, N89E
notes: other CDR sites as WT

Kd [1]: 9.96 nM
koff [1]: 0.000263 s⁻¹
kon [1]: 26400 M⁻¹ s⁻¹
Kd [2]: 9.96 nM
koff [2]: 0.000263 s⁻¹
kon [2]: 26400 M⁻¹ s⁻¹
OD 450 nm [3]: 1.97 OD
OD 450 nm [4]: 2.36 OD
OD 450 nm [5]: 1.03 OD
OD 450 nm [6]: 2.34 OD
OD 450 nm [7]: 2.4 OD
OD 450 nm [8]: 2.4 OD
OD 450 nm [9]: 2.34 OD
OD 450 nm [10]: 0.193 OD
B11: Mutation 1 (antibody, V domains shown)
VH: B1 VH with D26G, E59D, A105G
VL: B1 VL with A32V, S50T, N89Q
notes: other CDR sites as WT

Kd [2]: 17.8 nM
koff [2]: 0.000481 s⁻¹
kon [2]: 27000 M⁻¹ s⁻¹
OD 450 nm [3]: 0.978 OD
OD 450 nm [4]: 2 OD
OD 450 nm [5]: 0.367 OD
OD 450 nm [6]: 1.41 OD
OD 450 nm [7]: 2.11 OD
OD 450 nm [8]: 2 OD
OD 450 nm [9]: 2.21 OD
OD 450 nm [10]: 0.204 OD
B12: Mutation 3 (antibody, V domains shown)
VH: B1 VH with D26I, E59G, A105V
VL: B1 VL with A32I, S50T, N89R
notes: other CDR sites as WT

Kd [2]: 15.6 nM
koff [2]: 0.000434 s⁻¹
kon [2]: 27800 M⁻¹ s⁻¹
OD 450 nm [3]: 1.15 OD
OD 450 nm [4]: 2.13 OD
OD 450 nm [5]: 0.528 OD
OD 450 nm [6]: 1.61 OD
OD 450 nm [7]: 2.3 OD
OD 450 nm [8]: 2.17 OD
OD 450 nm [9]: 2.33 OD
OD 450 nm [10]: 0.224 OD
B13: Mutation 2 (antibody, V domains shown)
VH: B1 VH with D26L, A105I
VL: B1 VL with S50T, N89V
notes: other CDR sites as WT
